Target: NLRC4 (mouse) (UniProt Q3UP24)

Substance	IL-1β secretion (ELISA) by LPS-primed BMM one hour after protein transfection
FliC (purified, histidine-tagged) (from UniProt P06179) (ligand)	800 pg/mL
PrgJ (purified, histidine-tagged) (from UniProt P41785) (ligand)	800 pg/mL

Reference: patent US20100322957A1
